Test results from patent publication US20160317656A1 (Daiichi Sankyo, published 2016).
Changes are numbered by the printed parent chain.

What was measured:
[1] = molecular target: T1, human FGFR2 IIIb variant protein (isoform 2: NP_075259), expressed on transfected cells (human, UniProt P21802 22-821); assay: flow cytometry, hybridoma supernatant on transfected HEK293T cells
T1 construct: also called pcDNA-DEST40-FGFR2 IIIb
T1 chain: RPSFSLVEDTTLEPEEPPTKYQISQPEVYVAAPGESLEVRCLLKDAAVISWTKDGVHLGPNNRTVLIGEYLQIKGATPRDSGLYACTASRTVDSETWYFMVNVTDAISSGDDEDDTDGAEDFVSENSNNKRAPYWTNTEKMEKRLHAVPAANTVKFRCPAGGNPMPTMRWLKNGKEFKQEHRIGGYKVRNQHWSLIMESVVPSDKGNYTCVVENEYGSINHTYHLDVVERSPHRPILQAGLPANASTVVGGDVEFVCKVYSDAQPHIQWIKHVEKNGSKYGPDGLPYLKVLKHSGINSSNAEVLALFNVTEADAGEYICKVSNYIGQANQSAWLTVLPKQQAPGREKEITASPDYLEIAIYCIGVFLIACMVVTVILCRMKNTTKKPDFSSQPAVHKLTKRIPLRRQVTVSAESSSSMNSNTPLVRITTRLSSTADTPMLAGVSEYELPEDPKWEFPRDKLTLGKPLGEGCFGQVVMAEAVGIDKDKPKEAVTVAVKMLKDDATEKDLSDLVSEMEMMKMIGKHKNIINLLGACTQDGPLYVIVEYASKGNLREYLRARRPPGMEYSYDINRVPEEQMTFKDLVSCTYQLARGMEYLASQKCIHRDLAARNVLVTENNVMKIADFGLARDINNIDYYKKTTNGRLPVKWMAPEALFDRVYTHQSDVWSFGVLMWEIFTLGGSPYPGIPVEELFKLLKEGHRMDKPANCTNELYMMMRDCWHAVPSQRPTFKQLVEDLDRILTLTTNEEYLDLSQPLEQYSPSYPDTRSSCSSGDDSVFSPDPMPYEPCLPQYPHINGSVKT
Protocol: (§1) The cell suspension was centrifuged to remove the supernatant. […] The cells were washed twice with PBS containing 5% FBS, then suspended by the addition of Anti-Rat IgG FITC conjugate (manufactured by Sigma-Aldrich Corp.) diluted 320-fold with PBS containing 5% FBS, and left standing at 4° C. for 1 hour. The cells were washed 3 times with PBS containing 5% FBS and then resuspended in PBS containing 5% FBS and 2 μg/ml 7-aminoactinomycin D (manufactured by Molecular Probes, Inc.), followed by detection using a flow cytometer (FC500; manufactured by Beckman Coulter Inc.). The data was analyzed using Flowjo (manufactured by Tree Star Inc.). After removal of 7-aminoactinomycin D-positive dead cells by gating, the FITC fluorescence intensity of live cells was plotted to a histogram to calculate average fluorescence intensity (MFI).

[2] = molecular target: T2, human FGFR2 IIIc variant protein (isoform 1: NP_000132), expressed on transfected cells (human, UniProt P21802 22-821); assay: as above
T2 construct: also called pcDNA-DEST40-FGFR2 IIIc
Protocol: as §1

[3] = molecular target: T1, human FGFR2 IIIb variant protein …; assay: Cell-ELISA on transfected 293 alpha cells, antibody 2 ug/ml
Protocol: (§2) The resulting cells were dispensed in an amount of 100 μl/well to a 96-well plate (manufactured by Corning Inc.) and cultured overnight at 37° C. under 5% CO₂ conditions in a DMEM medium containing 10% FBS. The obtained transfected cells were used in the attached state in Cell-ELISA. […] The cells in the wells were washed once with PBS containing 5% FBS. Then, Anti-Human IgG-Peroxidase antibody produced in goat (manufactured by Sigma-Aldrich Corp.) diluted 500-fold with PBS containing 5% FBS was added thereto, and the plate was left standing at 4° C. for 1 hour. The cells in the wells were washed 5 times with PBS containing 5% FBS. Then, an OPD chromogenic solution (OPD solution (o-phenylenediamine dihydrochloride (manufactured by Wako Pure Chemicals Industries, Ltd.) and H₂O₂ dissolved at concentrations of 0.4 mg/ml and 0.6% (v/v), respectively, in 0.05 M trisodium citrate and 0.1 M disodium hydrogen phosphate dodecahydrate, pH 4.5)) was added thereto at a concentration of 100 μl/well. Color reaction was performed with occasional stirring and stopped by the addition of 1 M HCl at a concentration of 100 μl/well. Then, the absorbance was measured at 490 nm using a plate reader (ARVO; PerkinElmer, Inc.).

[4] = molecular target: T2, human FGFR2 IIIc variant protein …; assay: as above
Protocol: as §2

[5] = molecular target: T2, human FGFR2 IIIc variant protein …; assay: flow cytometry on transfected HEK293T cells
Protocol: as §1

B1: rat anti-human FGFR2 monoclonal antibody FR2-13 (antibody, V domains shown)
VH: QVKLLQSGAELVKPGASVKLSCKTSGFTFSTSYMSWLKQVPGPSIEWIGWIYAGDGGTKYNQKFKGKATLTVDKSSSTAYMDLSSLTSEDAAVYFCATDGYGDWFAYWGQGTLVTVSS
VL: DIQMTQSPASLSASLGETVTIECRASEDIYSNLAWYQQKPGNSPQLLIYDANILADGVPSRFSGSGSGTQYSLKINSLQSEDVASYFCQQYNNYPPFTFGVGTKLELKR
notes: Used as hybridoma culture supernatant or purified from mouse ascites; also called rat FR2-13 antibody
B1: binds [1]; binds [2].

B2: human chimeric anti-FGFR2 antibody cFR2-13 (antibody, human IgG1, V domains shown)
VH: B1 VH
VL: B1 VL
notes: Rat FR2-13 variable regions on human IgG1 / kappa constant regions; also called human chimeric FR2-13
B2: binds [3]; binds [4].

B3: rat anti-human FGFR2 monoclonal antibody FR2-14 (antibody, V domains shown)
VH: B1 VH with I45T, S75F, A106T
VL: B1 VL with V101A
notes: Used as hybridoma culture supernatant or purified from mouse ascites; also called rat FR2-14 antibody
B3: binds [1]; binds [5].

B4: human chimeric anti-FGFR2 antibody cFR2-14 (antibody, human IgG1, V domains shown)
VH: B1 VH with I45T, S75F, A106T
VL: B1 VL with V101A
notes: Rat FR2-14 variable regions on human IgG1 / kappa constant regions; also called human chimeric FR2-14
B4: binds [3]; binds [4].

B5: rat anti-human FGFR2 monoclonal antibody FR2-10 (antibody, V domains shown)
VH: EVQLVESGGGLVQPGRSLKLSCVASGFRFNDFWMTWIRQAPGKGLEWVASITYTGDNTYYAGSVKGRITISRDNAKSTLYLQMNSLRSEDTATYYCTRDDYGGYSPYYMDAWGQGTSVTVSS
VL: DIQMTQSPSSLSAFLGDRVTITCRASQDIGNYLRWFQQKPGKSPRLMIYGATNLANGVPSRFSGSRSGSDYSLTINNLESEDMAIYYCLKHNEYPFTFGSGTKLEIKR
notes: Used as hybridoma culture supernatant or purified from mouse ascites; also called rat FR2-10 antibody
B5: binds [1].

B6: human chimeric anti-FGFR2 antibody cFR2-10 (antibody, human IgG1, V domains shown)
VH: B5 VH
VL: B5 VL
notes: Rat FR2-10 variable regions on human IgG1 / kappa constant regions; also called human chimeric FR2-10
B6: binds [3].
